Tests used:
[1] = target: IvaP from Vibrio cholerae, the alkaline serine protease corresponding to the gene VC 0157 (purified) (Vibrio cholerae); assay: cell-based or functional assay
[2] = target: IvaP from Vibrio cholerae, the alkaline serine protease corresponding to the gene VC 0157 (purified) (Vibrio cholerae); assay: solvatochromic dye fluorescence, plate reader; I9-dye conjugate 3 µM, IvaP 1 µM (FIG. 7A)
[3] = target: IvaP from Vibrio cholerae, the alkaline serine protease corresponding to the gene VC 0157 (purified) (Vibrio cholerae); assay: solvatochromic dye fluorescence, multi-well plate reader; probe 3 µM, IvaP 1 µM preincubated with PMSF (FIG. 9B)

Substance	decrease in fluorescence intensity [1] [fold]	relative fluorescence change (Fbound/Funbound) [2] [fold]	increase in fluorescence intensity [3] [fold]
I9 E123C-MDCC conjugate (peptide)	4		
I9 I128C-IANBD conjugate (peptide)		2	2

— patent US20230250461A1
